koff data for 1 molecule are collected here from publication PMC10762086, “Non-canonical interplay between glutamatergic NMDA and dopamine receptors shapes synaptogenesis” (Nature Communications, 2024).

The assay deals with GluN1 subunit-containing NMDAR (GluN1-NMDAR), tagged GluN1 expressed at the surface of hippocampal neurons (UniProt P35439 19-938, Only the defined, expressed GluN1 subunit is built: it carries the D1R interaction through its C1 cassette. The canonical 938-aa form is taken as the C1-containing GluN1-1a; the exact splice form is n). The assay is described as follows: multidimensional spectral single molecule localization microscopy (MS-SMLM; two-colour quantum-dot single-particle tracking); live cultured hippocampal neurons (immature DIV 7-9; mature DIV 15 and above), surface receptors labelled by antibodies against extracellular tags and Qd-655 / Qd-705; 1000 frames of 50 ms (20 Hz), 37 °C; receptors counted as interacting when their distance fell below 100 nm; Koff estimated …. The conditions noted are these: partners not purified.

B1: dopamine receptor 1 wild-type (D1R-wt), extracellularly tagged, expressed in hippocampal neurons (receptor, UniProt P18901 1-446, looked up)
chain: MAPNTSTMDEAGLPAERDFSFRILTACFLSLLILSTLLGNTLVCAAVIRFRHLRSKVTNFFVISLAVSDLLVAVLVMPWKAVAEIAGFWPLGPFCNIWVAFDIMCSTASILNLCVISVDRYWAISSPFQYERKMTPKAAFILISVAWTLSVLISFIPVQLSWHKAKPTWPLDGNFTSLEDTEDDNCDTRLSRTYAISSSLISFYIPVAIMIVTYTSIYRIAQKQIRRISALERAAVHAKNCQTTAGNGNPVECAQSESSFKMSFKRETKVLKTLSVIMGVFVCCWLPFFISNCMVPFCGSEETQPFCIDSITFDVFVWFGWANSSLNPIIYAFNADFQKAFSTLLGCYRLCPTTNNAIETVSINNNGAVVFSSHHEPRGSISKDCNLVYLIPHAVGSSEDLKKEEAGGIAKPLEKLSPALSVILDYDTDVSLEKIQPVTHSGQHST
notes: dopamine D1 receptor; also called dopamine D1 receptor; source: cultured rat hippocampal neurons, transfected (calcium phosphate), on live cells; not shown: extracellular tag (GFP or Flag)
As to B1, the koff was 13 ± 0.7 s⁻¹.
